# Results taken from PMC7414852.
# Tests used:
# Experiment in all cases: cryo-EM structure
# [1] = molecular target: Vip3Aa16 N-terminal trypsin fragment (domain I, to K198) (Bacillus thuringiensis)
# [2] = molecular target: Trypsin-activated Vip3Aa16 toxin (cleaved at K198, both fragments kept together) (Bacillus thuringiensis)
# [3] = molecular target: Vip3Aa16 protoxin (Vegetative Insecticidal Protein 3Aa from Bacillus thuringiensis), residues 10-789 (Bacillus thuringiensis)
substance,measurement,setting,value
"Vip3Aa16 N-terminal trypsin fragment (domain I, to K198) (domain or fragment)",stoichiometry N,[1],4
"Trypsin-activated Vip3Aa16 toxin (cleaved at K198, both fragments kept together) (complex)",stoichiometry N,[2],4
"Vip3Aa16 protoxin (Vegetative Insecticidal Protein 3Aa from Bacillus thuringiensis), residues 10-789 (natural protein)",stoichiometry N,[3],4
